From paper PMC4980427, “Ctf4 Links DNA Replication with Sister Chromatid Cohesion Establishment by Recruiting the Chl1 Helicase to the Replisome” (Molecular Cell, 2016)

Biological target: the molecule itself
Assay: negative-stain single-particle EM of reconstituted assemblies; purified Ctf4 core, GINS and Chl1 mixed in equimolar amounts; reconstituted assemblies on silver-stained gel and two-dimensional class averages

B1: Ctf4 (residues 471–927) (domain or fragment, S. cerevisiae, UniProt Q01454 471-927, looked up)
chain: TGKFRYMPFSPAGTPFGFTDRRYLTMNEVGYVSTVKNSEQYSITVSFFDVGRFREYHFEDLFGYDLCFLNEKGTLFGQSKTGQIQYRPHDSIHSNWTKIIPLQAGERITSVAATPVRVIVGTSLGYFRSFNQFGVPFAVEKTSPIVALTAQNYRVFSVHYSQFHGLSYSLSELGTSSKRYYKRECPLPMSLPNINSDMKKDANLDYYNFNPMGIKSLFFSSYGDPCIFGSDNTLLLLSKWRSPEESKWLPILDSNMEIWKMSGGKETTDIHVWPLALAYDTLNCILVKGKHIWPEFPLPLPSEMEIRMPVFVKSKLLEENKAILNKKNEIGADTEAEEGEEDKEIQIPVSMAAEEEYLRSKVLSELLTDTLENDGEMYGNENEVLAALNGAYDKALLRLFASACSDQNVEKALSLAHELKQDRALTAAVKISERAELPSLVKKINNIREARYEQQLK
notes: Ctf4 C-terminal trimerization core that contains the CIP box acceptor, residues 471-927; also called Ctf4 C-terminal trimerization core; Ctf4 core; source: E. coli, overexpressed, purified
For B1, the “stoichiometry N” value was 3.
